For the assay, the target named is T1, R. rubrum RUBISCO LSU (RRrbcLSU, product of the RRrbcM gene) (Rhodospirillum rubrum, UniProt Q2RRP5 1-466).
T1 construct: The purified R. rubrum RUBISCO used as blot control is filed under this molecule too; also called R. rubrum RUBISCO protein; 55-kD RUBISCO-like protein
T1 sequence: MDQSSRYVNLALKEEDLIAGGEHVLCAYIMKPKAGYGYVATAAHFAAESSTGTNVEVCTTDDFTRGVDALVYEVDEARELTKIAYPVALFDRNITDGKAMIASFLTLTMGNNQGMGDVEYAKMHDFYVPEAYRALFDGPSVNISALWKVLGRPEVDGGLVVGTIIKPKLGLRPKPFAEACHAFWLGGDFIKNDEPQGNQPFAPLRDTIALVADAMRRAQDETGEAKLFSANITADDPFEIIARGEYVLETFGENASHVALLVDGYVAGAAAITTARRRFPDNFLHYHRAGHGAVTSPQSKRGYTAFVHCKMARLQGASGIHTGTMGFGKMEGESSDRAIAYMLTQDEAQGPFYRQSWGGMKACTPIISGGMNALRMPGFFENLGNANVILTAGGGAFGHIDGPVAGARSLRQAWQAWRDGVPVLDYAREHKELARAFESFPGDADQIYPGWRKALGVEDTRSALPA
Briefly: SDS-PAGE of crude leaf extract of plant 1074 (Coomassie stain); inferred because SSU did not accumulate.

B1: endogenous tobacco RUBISCO small subunit (SSU) (enzyme, Nicotiana tabacum, UniProt P69249 58-180, looked up)
chain: MQVWPPINKKKYETLSYLPDLSQEQLLSEVEYLLKNGWVPCLEFETEHGFVYRENNKSPGYYDGRYWTMWKLPMFGCTDATQVLAEVEEAKKAYPQAWIRIIGFDNVRQVQCISFIAYKPEGY
notes: Endogenous protein in leaf extracts; also called endogenous SSU; tobacco SSU
Turning to B1, the binding result is reported as “no binding”.

For the origin of these results see patent US20090172832A1 (published 2009).
